Results on 21 variants are retold here after the RNAGym collection of RNA variant scans (doi:10.1073/pnas.2313332121).

The labels stand for the following.
B1: TPR t1 (parent)
chain: GACCAAUCUGCCCUCAGAGCUCGAGAACAUCUUCGGAUGCAGAGGAGGCAGGCUUCGGUGGCGCGAUAGCGCCAACGUCCUCAACCUCCAAUGCAUCCCACCACAUGAUGAUGCCUGAAGAGCCUUGGUUUUUUG

This data set covers variants of B1. Put plainly: polymerase ribozyme fitness, log enrichment relative to wild type (log ratio); higher = more active; in vitro selection for triplet polymerase activity. The method, boiled down: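 Each subunit of a heterodimeric triplet polymerase ribozyme was represented by a PCR-built, transcribed mutant library that underwent triplicate single-round in vitro selection with frozen incubation at −7 °C. Extended constructs were recovered by gel excision, streptavidin-bead capture and RT-PCR, and Illumina sequencing of input and output libraries kept genotypes with ≥10 input reads and ≥1 read per output. Fitness is the logarithm of genotype enrichment relative to wild-type enrichment, from inverse-variance-weighted replicate averages, with a logarithm base of 2.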
In the case of GACCAAUCUGCCCACAGAGCUCGAGAACAUCUUCGGAUGCAGAGGAGGCAGGCUUCGGUGGCGCGAUAGCGCCAACGUCCACAACCUCCAAUGCAUCCCACCACAUGAUGAUGCCUGAAGAGCCUUGGUUUUUUG, the “polymerase ribozyme fitness (log ratio)” value was -4.19.
With GACCAAUCGGCCCUCAGAGCUCGAGAACAUCUUCGGAUGCAGAGGAGGCAGGCUUCGGUGGCGCGAUAGGGCCAACGUCCUCAACCUCCAAUGCAUCCCACCACAUGAUGAUGCCUGAAGAGCCUUGGUUUUUUG the figure was -2.02; with GACCAAUCUGCCCUCAGAGCUCGAGAAUAUCUUCGGAUGCAGAGGAGGCAGGCUUGGGUGGCGCGAUAGCGCAAACGUCCUCAACCUCCAAUGCAUCCCACCACAUGAUGAUGCCUGAAGAGCCUUGGUUUUUUG, -4.7.
For the variant GACCAAUCUGCCCUCAGAGCUCGAGAACAUCUUCGGAUGCAGAGGAGGCAGGCUUCGGUGGCUCGAUAGCGCCAACGUCCUCAACCUCCAAUGCAUCCCACCACAUGAUGAUGCCUGAACAGCCUUGGUUAUUUG, the “polymerase ribozyme fitness (log ratio)” value was 0.507.
With GACCAAUAUGCCUUCAGAGCUCGAGAACAUCUUCGGAUGCAGAGGAGGCAGGCUGCGGUGGCGCGAUAACGCCAACGUCCUCAACCUCCAAUGCAUCCCACCACAUGAUGAUGCCUGAAGAGCCUUGGUUUUUUG, the “polymerase ribozyme fitness (log ratio)” value is -2.21.
For the variant GACCAAUCUGCCCUCAGAGCUAGAGAACAUCUUCGGAUGCAGAGGAGGCAGGCUUCGGUGGCGCGAUAGCGCCAACGUCCUCAAUCUCCAAUGCAUCCCACCACAUGAUGAUGCCUGAAGAGCCUUGGUUUUUUG, the “polymerase ribozyme fitness (log ratio)” value is -4.92.
Regarding GACCAAUCUGCCCUCAGAGCUCGAGAACAUCUUCGGAUGCAGAGGAGGCAGGCUUCGGAGGCGCGAUAGCGCCAACGUCCUCAACCUCCAAUCCAUCCCACCACAUGAUGAUGUCUGAAGAGCCUUGGUUUUUUG, the “polymerase ribozyme fitness (log ratio)” value was -2.6.
Take GACCAAUCUGCCCUCAGAGCUCGAGAACAUCUUCGGAUGCAGAGGAGACAGGCUUCGGUGGCGCGAUAGCGCCAACGUCCUCAACCUCCAAUGCAUCCCACCACAAGAUGAUGCCUGAAGAGCCUUGGUUUUUUG: the “polymerase ribozyme fitness (log ratio)” value is -0.42.
In the case of GACCAAUCUGCCCUCAGAGCUCGAGAACAUCUUCGGAUGUAGAGGAGGCAGGCUUCGGUGGCGCGAUAGCGCCAACGUCCUCAACCUUCAAUGCAUCCCACCACAUGAUGAUGCCUGAAGAGCCUUGGUUUUUUG, the “polymerase ribozyme fitness (log ratio)” value is -0.588.
To GACCAAUCUCCCCUCAGAGCUCGAGAACAUCUUCGGAUGCAGAGGAGGCAGGCUUCGGUGGCGCGAUAGCGCCAACGUCCUCAACCUCUAAUGCAUCCCACCACAUGAUGAUGCCUGAAGAGCCUUGGCUUUUUG belongs -2.54; to GACCAAUCUGCCCUCAGAGGUCGAGAACAUCUUCGGAUGCAGAGGAGACAGACUUCGGUGGCGCGAUAGCGCCAACGUCCUCAACCUCCAAUGCAUCCCACCACAUGAUGAUGCCUGAAGAGCCUUGGUUUUUUG, -6; to GACCAAUCGGCCCUCAGAGCUCGAGAACAUCUUCGGAUGCAGAGGAGGCAGGCUUAGGUGGCGCGCUAGCGUCAACGUCCUCAACCUCCAAUGCAUCCCACCACAUGAUGAUGCCUGAAGAGCCUUGGUUUUUUG, -1.3.
Take GACUAAUCUGACUUCCGAGCUCGAGAACAGCUUCGGAUGCAGAGGAGGAAGGCUUCGGUGGCGGGAUAGCGCCAACGUCCUCAACCUCCAAUGCAUCCCACGACAUGAUGAGGCAUGAAGAGCCUUGGUUUUUUG: the “polymerase ribozyme fitness (log ratio)” value is -7.83.
For GACCAAUCUGUCCUCAGAGCUCGAGAACAUCUUCGGAUGCGGAGGAGGCAGGCUUCGGUGGCGCGAUAGCGCCAACGGCCUCAACCUCCAAUGCAUUCCACCACAUGAUGAUGCCUGAAGAGCCUUGGUUUUUUG, the “polymerase ribozyme fitness (log ratio)” value is -1.63.
GACCAAGCUGCCCUCAGAGCUCGAGAACAUCUUCGGAUGCAGAGGAGGCAGGCUUCGGUGGCGCGAUAGCGCCAACGUCCUCAACCUUCAAUCCAUCCCACCACAUGAUGAUGCCUGAAGAGCCUUGGUUUUUUG: the “polymerase ribozyme fitness (log ratio)” value was -1.33.
On to GACCAAUCUGCCCUCAGAGCUCGAGAACAUCUUCGGAUGCAGAGGAGGUAGGCUUCGGUAGCGCGAUAGCGCCAACGUCCUUAACCUCCAAUGCAUCCCACCACAAGAUGAUGCCUGAACAGCCUUGGUUUUUUA, for which the “polymerase ribozyme fitness (log ratio)” value amounted to 0.366.
For the variant GACCAAUCUGCCCUCAGAGCUCGAGAACAUCUUCGGAUGCAGAGGAGGAAGGCUUCGGUGGCGCGAUAGCGCCAACGUCCUCAACCUCCAAUGUAUCCCACCACAUGAUGAUGCCAGAAGAGCCUUGGUUUUUUG, the “polymerase ribozyme fitness (log ratio)” value is -3.07.
Consider GACCAAUCUGCCCUCAGAGCUCCAGAACAUCUUCGGAUGCAGAGGAGGCAGGCUUCGGUGGCGCGAUAGCGCCAACGUCCUCAACCUCCAAUGCAUCCCACCACAUGAUGAUGCCUGAAGAGACUUGGUUUUUUG, for which the “polymerase ribozyme fitness (log ratio)” value was -6.41.
With GACCAACCUGCCCUCAGAGCUCGAGAACAUCUUCGGAUGCAGAGGAGGCAGGCUUCGGUGGCGCGAUAGCGCCAACGUCCUCAACCUCCAAUGCAUCCCACCACAUGAUGAUGCCUGAAGAGCCUUGGUUUUUUC the figure was -0.63; with GGCCAAUCUGCCCUUAGAGCUCGAGAACAUCUUCGGUUGCAGAGGAGGCAGGCUUCGGUGGCGCGAUAGCGCCAACGUCCUCAACCUCCAAUGCAUCCCAGCAAAUGAUGAUGCCUGAAGAGCCUUGGUUUUUUG, -5.07.
Take GACCAAUCUGCCCUCAGAGCUCGAGAACAUCUUCGGAUGCAGAGUAGGCAGGCUUCGGUGGCGCGAUAGCGCCAACGUCCUCAGCCUCCAAUGCAGCCCAGCACAUGAUGAUGCCUGAAGAGCCUUGGUUUUUUG: the “polymerase ribozyme fitness (log ratio)” value is -4.84.
